From IntAct's records for PubMed 22791719

B1: Phospholipid-transporting ATPase accessory subunit CRF1 (Saccharomyces cerevisiae), P53740 (parent)
chain: MGLILRWKEKKQLSSKQNAQKSRKPANTSFRQQRLKAWQPILSPQSVLPLLILMACVFAPIGIGLVVSTISVQRLVVNYTECDALAPAKHFETIPSEYVDYHFSKKVAVQPQWMVLTDPELGNQTCRIQFEVPNHIKKSTYVYYRLTNFNQNYREYVQSLDLDQLKGKALIGNDLDPNCDPLRTVENKTIFPCGLIANSMFNDTFGTTLTGVNDTADYLLTTKGIAWDTDSHRYGKTEYNASDIVPPPNWAKLFPNGYTDDNIPDLQNWEQFKIWMRTAALPNFYKLAMKNETNGLGKGIYIADIELNYPVRSFYGTKSFVLTTNSIIGAGNEALGIVYLIVAGIATLFAILFLIKVIFKPRPMHDHSYLNFENSDTPFDESSVVSIPLREIL

Variants of: B1
Settings: with atc8_yeast DNF3, Q12674
atc8_yeast DNF3, Q12674, sequence (Q12674 whole entry): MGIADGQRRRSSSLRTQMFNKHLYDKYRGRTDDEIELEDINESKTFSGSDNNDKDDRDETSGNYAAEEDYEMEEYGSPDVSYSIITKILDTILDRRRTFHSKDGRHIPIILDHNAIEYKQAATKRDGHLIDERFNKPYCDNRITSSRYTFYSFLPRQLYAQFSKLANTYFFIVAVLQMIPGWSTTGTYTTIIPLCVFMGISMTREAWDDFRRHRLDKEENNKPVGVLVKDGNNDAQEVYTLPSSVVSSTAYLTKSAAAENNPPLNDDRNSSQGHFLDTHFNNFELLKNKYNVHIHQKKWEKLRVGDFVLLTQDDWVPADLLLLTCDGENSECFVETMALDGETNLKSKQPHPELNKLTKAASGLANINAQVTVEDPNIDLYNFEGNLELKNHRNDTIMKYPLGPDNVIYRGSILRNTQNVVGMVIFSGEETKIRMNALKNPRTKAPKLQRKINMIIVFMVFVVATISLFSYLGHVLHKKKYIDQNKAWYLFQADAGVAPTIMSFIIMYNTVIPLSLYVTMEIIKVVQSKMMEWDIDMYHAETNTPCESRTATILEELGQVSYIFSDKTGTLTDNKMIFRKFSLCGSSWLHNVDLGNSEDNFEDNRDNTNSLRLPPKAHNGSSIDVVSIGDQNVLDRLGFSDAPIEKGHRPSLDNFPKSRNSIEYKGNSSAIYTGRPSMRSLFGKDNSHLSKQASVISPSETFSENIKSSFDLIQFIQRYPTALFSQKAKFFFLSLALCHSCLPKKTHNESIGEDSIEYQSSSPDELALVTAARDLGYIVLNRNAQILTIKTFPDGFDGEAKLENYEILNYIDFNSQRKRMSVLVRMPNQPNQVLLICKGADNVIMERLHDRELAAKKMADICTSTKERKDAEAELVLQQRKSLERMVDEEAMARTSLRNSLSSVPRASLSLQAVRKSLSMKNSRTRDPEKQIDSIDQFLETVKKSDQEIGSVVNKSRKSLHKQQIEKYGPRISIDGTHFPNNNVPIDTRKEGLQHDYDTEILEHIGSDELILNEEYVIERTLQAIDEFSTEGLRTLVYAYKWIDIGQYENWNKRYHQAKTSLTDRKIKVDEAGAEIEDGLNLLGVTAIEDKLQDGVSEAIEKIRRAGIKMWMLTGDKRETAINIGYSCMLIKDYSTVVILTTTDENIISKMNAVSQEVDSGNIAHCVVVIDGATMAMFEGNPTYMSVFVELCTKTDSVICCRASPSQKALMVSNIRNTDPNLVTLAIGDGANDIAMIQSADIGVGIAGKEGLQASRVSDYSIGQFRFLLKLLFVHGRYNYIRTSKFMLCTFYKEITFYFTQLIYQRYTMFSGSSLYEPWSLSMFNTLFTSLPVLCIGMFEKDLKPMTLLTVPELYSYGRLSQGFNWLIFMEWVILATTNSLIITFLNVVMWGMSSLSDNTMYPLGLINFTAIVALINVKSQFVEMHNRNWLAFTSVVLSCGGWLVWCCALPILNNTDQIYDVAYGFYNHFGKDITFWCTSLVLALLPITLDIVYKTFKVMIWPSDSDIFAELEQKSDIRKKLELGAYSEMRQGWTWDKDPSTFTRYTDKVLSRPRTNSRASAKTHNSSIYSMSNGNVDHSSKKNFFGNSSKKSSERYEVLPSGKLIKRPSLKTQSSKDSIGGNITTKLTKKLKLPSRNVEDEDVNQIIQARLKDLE
For C82A, the “effect of a mutation on the interaction” value was “disrupting interaction strength”.
C179A was tested, and the “effect of a mutation on the interaction” value was “decreasing interaction strength”.
For C193A, the “effect of a mutation on the interaction” value was “decreasing interaction strength”.
